These results are taken from patent publication US20060211041A1 (Astellas, published 2006).

Changes are numbered by the printed parent chain.

The target of series [1] is T1, GST protein (protein of GST moiety alone, from pGEX-3X) (UniProt P08515 1-218 = GST).
T1 construct: Control of the pull down
In words: GST pull down of 35S-labelled in vitro translated human AKBP2, SDS-PAGE and autoradiography. How it is done: Using the GST fusion Akt2 protein (to be referred to as GST-Akt2 hereinafter) prepared in the aforementioned (2), the presence or absence of direct interaction between human AKBP2 protein and Akt2 protein was verified by the GST-pull down method (H. Matsushime et al., Jikken Kogaku, Vol. 113, No. 6, p. 528, 1994). Firstly, using 0.5 μg of the pcDNA-human AKBP2 prepared in the aforementioned Example 5 as the template, and using 40 μl of a TNT kit (TNTR Quick Coupled Transcription/Translation System; Promega) and 1.3 MBq of a radioisotope (redivue Pro-mix L-[³⁵S]; Amersham), radioisotope-labeled human AKBP2 protein was prepared by in vitro transcription and translation in accordance with the attached protocols. A 15 μl portion of this human AKBP2 protein preparation solution was mixed with 1 μg of the GST protein or GST-Akt2 purified on glutathione beads in the aforementioned (2) and shaken at 4° C. for 1 hour after adding 0.3 ml of Buffer A (50 mM Tris-HCl (pH 7.5), 10% glycerol, 120 mM NaCl, 1 mM EDTA, 0.1 mM EGTA, 0.5 mM PMSF, 0.5% NP-40). […] After repeating this operation 4 times, proteins in the precipitate were separated by SDS polyacrylamide gel electrophoresis in accordance with a conventionally known method, and the human AKBP2 protein was detected by autoradiography. As a result, a band which is not detected when the GST protein is mixed was detected when GST-Akt2 was mixed.

For series [2], the target named is T2, mouse AKBP2 over-expressed in NIH3T3 L1 fat cells from adenovirus vector AKBP2/pAdTrack-CMV.
T2 chain: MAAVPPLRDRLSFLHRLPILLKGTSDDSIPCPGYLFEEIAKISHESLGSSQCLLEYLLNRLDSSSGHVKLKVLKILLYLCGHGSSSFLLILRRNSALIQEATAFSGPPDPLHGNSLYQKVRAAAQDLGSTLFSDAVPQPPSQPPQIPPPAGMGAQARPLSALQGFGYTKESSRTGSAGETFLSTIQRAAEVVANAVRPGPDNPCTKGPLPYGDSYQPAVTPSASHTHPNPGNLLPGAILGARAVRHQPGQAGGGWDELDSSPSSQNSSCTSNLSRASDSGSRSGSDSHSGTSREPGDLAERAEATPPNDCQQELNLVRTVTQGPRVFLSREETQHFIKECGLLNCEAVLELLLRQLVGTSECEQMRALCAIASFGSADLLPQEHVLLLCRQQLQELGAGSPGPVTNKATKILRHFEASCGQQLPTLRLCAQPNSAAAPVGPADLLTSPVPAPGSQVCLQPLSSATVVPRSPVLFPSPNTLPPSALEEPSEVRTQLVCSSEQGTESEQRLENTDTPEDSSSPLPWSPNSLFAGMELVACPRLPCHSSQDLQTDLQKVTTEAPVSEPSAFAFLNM

Series [3] addresses T3, mouse AKBP2 (Akt2 Binding Protein 2) fused to the GAL4 transcriptional activation domain (pACT2 library clone … (mouse, UniProt Q3U3N6 1-573)).
T3 construct: Prey of the yeast two hybrid screen; also called mouse AKBP2 protein; not shown: limits and junction r
T3 sequence: T2 chain
Nature of the series: yeast two hybrid, HIS3 (3AT resistance) and lacZ (β-galactosidase) reporters. How it is done:
The aforementioned yeast strain MaV203 for two hybrid transformed by pDB-Akt2 was suspended in 400 ml of YPD liquid medium (DIFCO), cultured at 30° C. for about 6 hours until absorbance at a wave length of 590 nanometer became from 0.1 to 0.4, and then made into competent cells by the lithium acetate method, and the final amount was suspended in 1.0 ml of 0.1 M lithium-tris buffer. The cells were transformed with 20 μg of the mouse fat tissue derived cDNA library prepared in the aforementioned (3), and the cells were selected by culturing on a solid synthetic minimal medium (DISCO, 20% agarose) from which tryptophan and leucine as respective selection markers of pDB-Akt2 and the library had been deleted, thereby obtaining a transformant into which both plasmids were introduced. At the same time, in order to select a cell having an activated reporter gene HIS3 which is expressed when a fusion protein of the GAL4 DNA binding domain artificially expressed in the two hybrid system is linked to a fusion protein of the GAL4 transcriptional activation domain, the transformed cells were cultured at 30° C. for 5 days on the solid minimal medium (20% agarose) from which histidine was removed together with tryptophan and leucine and to which 20 mM of 3AT (3-amino-1,2,4-triazole; Sigma) as an inhibitor of the enzyme encoded by HIS3 was added. […]

T1 sequence (P08515 whole entry): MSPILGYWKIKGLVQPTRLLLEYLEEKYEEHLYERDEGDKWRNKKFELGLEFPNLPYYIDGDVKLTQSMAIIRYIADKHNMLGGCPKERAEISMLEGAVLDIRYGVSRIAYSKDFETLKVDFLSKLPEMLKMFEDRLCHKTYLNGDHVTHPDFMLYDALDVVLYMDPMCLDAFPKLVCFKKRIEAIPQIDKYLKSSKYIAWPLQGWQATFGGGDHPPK

B1: human AKBP2-V5-His 6 fusion protein (in vitro transcribed and translated from pcDNA-human AKBP2, 35S-labelled) (other, not shown: small tags and cut ends)
chain: MAAAPPLRDRLSFLHRLPILLKGTSDDDVPCPGYLFEEIAKISHESPGSSQCLLEYLLSRLHSSSGHGKLKVLKILLYLCSHGSSFFLLILKRNSAFIQEAAAFAGPPDPLHGNSLYQKVRAAAQDLGSTLFSDTVLPLAPSQPLGTPPATGMGSQARPHSTLQGFGYSKEHGRTGSAGEAFLSTIQKAAEVVASAMRPGPESPSTRRLLPRGDTYQPAMMPSASHGPPTLGNLLPGAIPGPRAVRHQPGQAGGGWDELDSGPSSQNSSQNSDLSRVSDSGSHSGSDSHSGASREPGDLAERVEVVALSDCQQELSLVRTVTRGPRAFLSREEAQHFIKACGLLNCEAVLQLLTCHLRGTSECTQLRALCAIASLGSSDLLPQEHILLRTRPWLQELSMGSPGPVTNKATKILRHFEASCGQLSPARGTSAEPGPTAALPGPSDLLTDAVPLPGSQVFLQPLSSTPVSSRSPAPSSGMPSSPVPTPPPDASPIPAPGDPSEAEARLAESRRWRPERIPGGTDSPKRGPSSCAWSRDSLFAGMELVACPRLVGAGAAAGESCPDAPRAPQTSSQRTAAKEPPGSEPSAFAFLNA
modifications: radioisotope-labelled (redivue Pro-mix L-[35S])
notes: also called human AKBP2 protein
In the case of B1, in series [1], the binding result is recorded as “no binding (tested: 1 µg of the GST protein)”.

B2: Akt2 of NIH3T3 L1 fat cells (endogenous, immunoprecipitated with anti-Akt2 antibody) (protein)
chain: MNEVSVIKEGWLHKRGEYIKTWRPRYFLLKSDGSFIGYKERPEAPDQTLPPLNNFSVAECQLMKTERPRPNTFVIRCLQWTTVIERTFHVDSPDEREEWMRAIQMVANSLKQRGPGEDAMDYKCGSPSDSSTSEMMEVAVNKARAKVTMNDFDYLKLLGKGTFGKVILVREKATGRYYAMKILRKEVIIAKDEVAHTVTESRVLQNTRHPFLTALKYAFQTHDRLCFVMEYANGGELFFHLSRERVFTEDRARFYGAEIVSALEYLHSRDVVYRDIKLENLMLDKDGHIKITDFGLCKEGISDGATMKTFCGTPEYLAPEVLEDNDYGRAVDWWGLGVVMYEMMCGRLPFYNQDHERLFELILMEEIRFPRTLGPEAKSLLAGLLKKDPKQRLGGGPSDAKEVMEHRFFLSINWQDVVQKKLLPPFKPQVTSEVDTRYFDDEFTAQSITITPPDRYDSLDPLELDQRTHFPQFSYSASIRE
In the case of B2, in series [2], the “phosphorylation of the 473rd serine of immunoprecipitated Akt2, western blotting with anti-phosphorylated serine473 antibody, 30 minutes of insulin stimulation” value is recorded as “degree of the phosphorylation acceleration was weakened in the cells infected with the AKBP2 virus than in the control virus-infected cells” and the “phosphorylation of the 473rd serine of immunoprecipitated Akt2, western blotting with anti-phosphorylated serine473 antibody, no stimulation” value was “the phosphorylated state at the time of no stimulation was reduced in the cells infected with the AKBP2 virus in comparison with the control virus-infected cells”.

B3: human Akt2 fused to the GAL4 DNA binding region (expressed from pDB-Akt2 in yeast MaV203) (other, UniProt P31751 1-481, looked up)
chain: B2 chain with G114A, A119P, S133T, M135E, N141S, D250E, G374S, D460G, P461L
notes: mature; Bait of the yeast two hybrid screen; also called Akt2 (PKBβ); not shown: limits and junction residues not pri
For the molecule B3, the binding result in series [3] is reported as “binds”.
